Data from patent US20240225985A1, “BRIGHTENING COMPOSITIONS AND METHODS OF USE” (Alastin Skincare, Inc., priority 2021, published 2024).
“Also recorded” adds a separate entry of the source.

Legend:
[1] = tested on: hTERT-immortalized dermal melanocytes; assay: Melanocyte assay, daily inspection of cell morphology; format: cell-based, human; settings: both concentrations of Table 11; five-day dosing period
Protocol: Once the melanocytes were 100% confluent in 6-well plates, the melanocyte growth media was removed and the melanocytes were treated with media containing the above compounds; duplicate wells for each compound/concentration listed above. The duplicate vehicle control wells were fed melanocyte growth media only or melanocyte growth media with DMSO (10 uL per 10 mL melanocyte growth media).
The cells were fed the appropriate media for the next 5 days. Each day, the cells were inspected for morphology.

melanocytes [2] = assay: Gene expression study (RNA sequencing) in PGE2-induced melanocytes; format: cell-based, human; settings: melanocytes induced with 10 uM PGE2; 24 hours of compound exposure
Protocol: Four cell types associated with pigmentation pathways—melanocytes, keratinocytes, fibroblasts and endothelial (HUVEC) cells—were analyzed for gene expression.
To simulate the UV stimulatory pigmentation pathway process, melanocytes were pre-treated with PGE2, a normal direct consequence of UV light exposure usually emanating from exposed keratinocytes. After the 48 hour attachment culture, these melanocytes were induced with 10 uM PGE2 in melanocyte media for 24 hrs. The four primary human adult dermal cell lines were cultured and plated in well plates in triplicate and then treated with 11 different compound treatments (plus DMSO control). After 48 hours of attachment culture, the remaining fibroblasts, HUVECs and keratinocytes were treated with the test compounds listed in Table 8.
After 24 hours of compound exposure, RNA lysate preparation was carried out and samples were shipped to MedGenome for RNA extraction, library construction and sequencing to 25M paired end 100 bp reads per sample. Library prep and sequencing was completed at MedGenome.

endothelial cells = assay: Gene expression of PMEL, tyrosinase genes, MC1/4R, EDNRB, MITF, ERK1/2, JNK, AKT1; format: cell-based; settings: after treatment of endothelial cells
Text: The methods similar to Examples 3-4 were used to measure expression of PMEL, tyrosinase genes, MC1/4R, EDNRB, MITF, ERK1/2, JNK, and ANKT1.
FIGS. 10A-10D illustrates the expression of PMEL (FIG. 10A), Tyrosinase genes (FIG. 10B), MC1/4R (FIG. 10C), and EDNRB (FIG. 10D) after treatment of endothelial cells with lactoferrin (Lacto), peptide derived from lactoferrin (TCV), hexapeptide-12 (Hex12), tripeptide-1 and hexapeptide-12 (TriHex), hexapeptide-11 (Hex11), tranexamic acid (Tran acid) octapeptide (Octa), phosphatidylserine (phos), Cannabidiol (CBD), and all (total).
MITF is regulated by phosphorylation. Specifically, the MAPK and Akt pathways are known to phosphorylate MITF at certain sites. FIGS. 12A-12C illustrate the expression of ERK1/2 (MAPK3/MAPK1) (FIG. 12A), JNK (FIG. 12B), AKT1 (FIG. 12C) after treatment of endothelial cells with lactoferrin (Lacto), peptide derived from lactoferrin (TCV), hexapeptide-12 (Hex12), tripeptide-1 and hexapeptide-12 (TriHex), hexapeptide-11 (Hex11), octapeptide (Octa), phosphatidylserine (phos), Cannabidiol (CBD), and all (total).

melanocytes [3] = assay: In vitro melanocyte comparative analysis via absorbance readings (melanin production); format: cell-based; settings: for Absorbance 405 nm / Absorbance 490 nm / Absorbance 492 nm: 4 days, control = 0.0 row
Protocol: Melanocytes were cultured in 6-well plates containing growth media. Once confluent, 2 concentrations of each of the 10 compounds were added to the cells in triplicate wells for 4 days. There were a total of eleven 6-well plates, one for each compound treatment and one for the vehicle control. Absorbance readings were taken on the lysates prepared for each well of the 6-well plates, normalizing for cells counts. The model was initially tested for accuracy and validated using hexapeptide-12 in view of strong gene expression results with melanocyte cell line in the first study—confirmation of decreased stimulation was obtained. Additional validation was carried out using MSH addition to media to confirm increased stimulation of melanin production. The following compounds used in this study are seen in Table 9.

[4] = higher concentration (Lactoferrin 1000, HEX-11 200, Phosphatidylserine 500, Silymarin 20, Sesamol 100, Tranexamic Acid 1000, HEX-12 4.9, ug/mL or ug/uL; Phytoene/Phytofluene 5.00%)
[5] = lower concentration (Lactoferrin 500, HEX-11 100, Phosphatidylserine 250, Silymarin 10, Sesamol 50, Tranexamic Acid 500, HEX-12 2.9, ug/mL or ug/uL; Phytoene/Phytofluene 2.50%)

B1: Lactoferrin: 80 kDa iron binding glycoprotein of the transferrin family (protein)
chain: APRKNVRWCTISQPEWFKCRRWQWRMKKLGAPSITCVRRAFALECIRAIAEKKADAVTLDGGMVFEACRDPYKLRPVAAEIYGTKESPQTHYYAVAVVKKGSNFQLDQLQGRKSCHTGLGRSAGWIIPMGILRPYLSWTESLEPLQGAVAKFFSASCVPCIDRQAYPNLCQLCKGEGENQCACSSREPYFGYSGAFKCLQDGAGDVAFVKETTVFENLPEKADRDQYELLCLNNSRAPVDAFKECHLAQVPSHAVVARSVDGKEDLIWKLLSKAQEKFGKNKSRSFQLFGSPPGQRDLLFKDSALGFLRIPSKVDSALYLGSRYLTTLKNLRETAEEVKARYTRVVWCAVGPEEQKKCQQWSQQSGQNVTCATASTTDDCIVLVLKGEADALNLDGGYIYTAGKCGLVPVLAENRKSSKHSSLDCVLRPTEGYLAVAVVKKANEGLTWNSLKDKKSCHTAVDRTAGWNIPMGLIVNQTGSCAFDEFFSQSCAPGADPKSRLCALCAGDDQGLDKCVPNSKEKYYGYTGAFRCLAEDVGDVAFVKNDTVWENTNGESTADWAKNLNREDFRLLCLDGTRKPVTEAQSCHLAVAPNHAVVSRSDRAAHVKQVLLHQQALFGKNGKNCPDKFCLFKSETKNLLFNDNTECLAKLGGRPTYEEYLGTEYVTAIANLKKCSTSPLLEACAFLTR
For B1, the “melanocyte morphology / survival on daily inspection” value [1] was “developed a circular morphology rather the normal webbed morphology 24 hour post-initial dosing; also recorded: at 48 hours post-initial dosing, the melanocytes returned to normal morphology”, the “melanogenic gene activity in melanocytes” value (melanocytes [2]) was “particularly dominant in melanogenic activity; also recorded: significant effects on melanogenesis activity” and the “melanogenic activity (expression of PMEL, tyrosinase genes, MC1/4R, EDNRB, kinases)” value (endothelial cells) was “robust melanogenic activity; also recorded: significant effects on such melanogenic activity”. The “Absorbance 405 nm” value (melanocytes [3]; [4]) was 0.519, the “Absorbance 490 nm” value (melanocytes [3]; [4]) was 0.312 and the “Absorbance 492 nm” value (melanocytes [3]; [4]) was 0.226. For the same molecule, the “Absorbance 405 nm” value (melanocytes [3]; [5]) was 0.509, the “Absorbance 490 nm” value (melanocytes [3]; [5]) was 0.334 and the “Absorbance 492 nm” value (melanocytes [3]; [5]) was 0.217. For the same molecule, the “Regulation of melanogenesis (decreased absorption denoting decreased melanin formation)” value (melanocytes [3]; melanocytes, summary of Table 10) was “Regulation of melanogenesis was observed”.
